Measured values reported in patent publication US20230203185A1 (ECO ANIMAL HEALTH, published 2023).
Substitutions are numbered along the chain they refer to.

T1: porcine CD163 with deletion of SRCR domain 5 on porcine alveolar macrophages (porcine, UniProt Q2VL90 47-1115)
T1 construct: also called PAM CD163-d5; pPAMΔ5 domain
T1 sequence: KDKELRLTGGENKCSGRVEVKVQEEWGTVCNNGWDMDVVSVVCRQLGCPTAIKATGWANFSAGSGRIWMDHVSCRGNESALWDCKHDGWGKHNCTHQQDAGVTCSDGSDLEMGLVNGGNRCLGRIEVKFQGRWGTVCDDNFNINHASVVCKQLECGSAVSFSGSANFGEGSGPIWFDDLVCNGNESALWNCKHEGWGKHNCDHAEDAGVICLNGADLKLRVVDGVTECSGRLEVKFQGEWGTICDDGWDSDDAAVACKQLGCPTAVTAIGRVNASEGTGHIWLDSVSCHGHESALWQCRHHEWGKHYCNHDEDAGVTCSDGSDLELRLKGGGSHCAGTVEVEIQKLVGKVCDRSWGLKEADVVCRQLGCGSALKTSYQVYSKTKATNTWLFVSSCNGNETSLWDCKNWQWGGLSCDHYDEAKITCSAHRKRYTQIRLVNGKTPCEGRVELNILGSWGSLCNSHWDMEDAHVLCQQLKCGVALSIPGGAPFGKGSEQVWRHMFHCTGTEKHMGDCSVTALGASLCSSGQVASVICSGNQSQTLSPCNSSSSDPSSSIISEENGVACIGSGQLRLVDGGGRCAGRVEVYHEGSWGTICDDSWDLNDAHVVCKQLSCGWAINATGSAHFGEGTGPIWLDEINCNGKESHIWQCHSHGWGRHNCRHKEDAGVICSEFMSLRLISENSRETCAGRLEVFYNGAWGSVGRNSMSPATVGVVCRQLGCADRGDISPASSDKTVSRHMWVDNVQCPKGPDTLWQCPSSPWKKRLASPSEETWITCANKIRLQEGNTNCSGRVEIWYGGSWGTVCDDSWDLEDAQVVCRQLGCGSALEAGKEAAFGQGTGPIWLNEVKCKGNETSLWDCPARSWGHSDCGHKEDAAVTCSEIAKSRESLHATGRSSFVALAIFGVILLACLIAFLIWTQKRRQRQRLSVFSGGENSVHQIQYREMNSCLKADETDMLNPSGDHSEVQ

T2: native membrane bound porcine CD163 on primary porcine alveolar macrophages (porcine, UniProt Q2VL90 47-1115)
T2 construct: also called PAM CD163-WT; pPAM
T2 sequence: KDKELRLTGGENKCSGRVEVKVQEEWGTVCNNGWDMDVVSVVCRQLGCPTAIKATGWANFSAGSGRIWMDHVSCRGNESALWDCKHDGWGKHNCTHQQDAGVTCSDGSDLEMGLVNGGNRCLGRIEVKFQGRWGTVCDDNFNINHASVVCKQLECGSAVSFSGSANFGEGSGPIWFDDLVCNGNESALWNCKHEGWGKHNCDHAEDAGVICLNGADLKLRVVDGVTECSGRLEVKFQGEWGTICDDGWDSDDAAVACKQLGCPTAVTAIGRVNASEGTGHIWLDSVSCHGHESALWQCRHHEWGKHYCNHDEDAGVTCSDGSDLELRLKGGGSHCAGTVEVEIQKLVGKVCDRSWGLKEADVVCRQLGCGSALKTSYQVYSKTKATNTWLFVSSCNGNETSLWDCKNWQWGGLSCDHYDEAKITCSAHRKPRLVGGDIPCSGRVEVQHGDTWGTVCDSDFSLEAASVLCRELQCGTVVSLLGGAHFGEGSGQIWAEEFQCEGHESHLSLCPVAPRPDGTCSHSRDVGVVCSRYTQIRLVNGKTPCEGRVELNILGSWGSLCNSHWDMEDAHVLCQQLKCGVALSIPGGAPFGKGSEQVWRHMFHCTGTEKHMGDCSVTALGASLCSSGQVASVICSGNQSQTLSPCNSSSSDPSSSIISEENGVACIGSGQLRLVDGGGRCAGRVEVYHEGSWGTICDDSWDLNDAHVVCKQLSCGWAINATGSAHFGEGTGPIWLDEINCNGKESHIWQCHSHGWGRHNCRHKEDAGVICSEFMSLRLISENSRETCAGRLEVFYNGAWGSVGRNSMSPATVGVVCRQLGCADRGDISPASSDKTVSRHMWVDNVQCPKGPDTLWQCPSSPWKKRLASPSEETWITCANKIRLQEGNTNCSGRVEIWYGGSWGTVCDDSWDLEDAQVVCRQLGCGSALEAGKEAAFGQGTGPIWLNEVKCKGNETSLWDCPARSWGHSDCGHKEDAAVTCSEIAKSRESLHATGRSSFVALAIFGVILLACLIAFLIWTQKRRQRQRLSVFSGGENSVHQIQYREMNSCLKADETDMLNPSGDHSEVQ

B1: VHH 012 (2C07) (VHH)
VHH: QLQLVESGGGLVQAGGSLRLSCVASGRTFSRYAMGWFRQAPGKEREFVAAIAWSTGSTYYANSVKGRFAISGDNAKNTVYLQMNSLKPEDTAVYYCAAETRYCSGFGCLDPRTYGSWGQGTQVTVSS
notes: Llama single domain antibody; also called 41(#12); VHCDR3 41(#12); not shown: tags: c-myc tag in periplasmic extract (ELISA, FACS); FLAG and His tags in purified VHH (SPR, infection assays)
B2: VHH 023 (4E10) (VHH)
VHH: QVQLVESGGGLVQAGGSLRLSCVASSRTSSTYAMGWFRQGPGKERDFVAIISFGGTFYADSVKGRFTISRDNAKNTVYLQMNSLKPEDTAVYYCAAGRTLSKRADSYASWGQGTQVTVSS
notes: Llama single domain antibody; also called 70(#23); VHCDR3 70(#23); not shown: tags: c-myc tag in periplasmic extract (ELISA, FACS); FLAG and His tags in purified VHH (SPR, infection assays)
B3: VHH 002 (1B04) (VHH)
VHH: QVQLVESGGGLVQAGGSLRLSCAASGLTFVTYSMGWFRQAPGKEREFVAAHRWSGSAYYAEHADSVEGRFTISRDYAKNMLYLQMNSLKHEDTAVYYCAAGVGSAAQYRYWGRGTQVTVSS
notes: Llama single domain antibody; also called 76(#2); VHCDR3 76(#2); not shown: tags: c-myc tag in periplasmic extract (ELISA, FACS); FLAG and His tags in purified VHH (SPR, infection assays)
B4: VHH 008 (1H01) (VHH)
VHH: B3 VHH with L27R, V30G, A105E
notes: Llama single domain antibody; also called 78(#8); VHCDR3 78(#8); not shown: tags: c-myc tag in periplasmic extract (ELISA, FACS); FLAG and His tags in purified VHH (SPR, infection assays)
B5: VHH 016 (2H11) (VHH)
VHH: EVQLVESGGGLVQAGGSLRLSCAASGRTFAPGSMGWFRQAPGKEREFVAAHRWSGSAYYADYADSVEGRFTISRDYAKNMVYLQMNSLKPGDTAVYYCAAGVGSAAQYTYWGRGTQVTVSS
notes: Llama single domain antibody; also called 77(#16); VHCDR3 77(#16); not shown: tags: c-myc tag in periplasmic extract (ELISA, FACS); FLAG and His tags in purified VHH (SPR, infection assays)
B6: VHH 015 (2G01) (VHH)
VHH: QVQLVESGGGLVQAGDTLRLSCTASGRTFSSYSMGWFRQAPGKEREFVAAITWNGYITNYADSVKGRFTISRDNTKNTVFLQMNSLKPEETAVYYCAATTFSTTSPISRTYNYWGPGTQVTVSS
notes: Llama single domain antibody; also called 150(#15); VHCDR3 150(#15); not shown: tags: c-myc tag in periplasmic extract (ELISA, FACS); FLAG and His tags in purified VHH (SPR, infection assays)
B7: VHH 001 (1B02) (VHH)
VHH: EVQLVESGGGLVQAGGSLSLSCAASGGTLAMYAMSWFRQAPGKDRKFVAAINTSGRYSRYADSVKGRFTISRDNAKNTATLQMNSLEPEDTAVYYCAATDKGNWALAMSYDYWGQGTQVTVSS
notes: Llama single domain antibody; also called 144(#1); VHCDR3 144(#1); not shown: tags: c-myc tag in periplasmic extract (ELISA, FACS); FLAG and His tags in purified VHH (SPR, infection assays)
B8: VHH 011 (2B06) (VHH)
VHH: EVQLVESGGGLVQAGGSLRLSCAASGRTLSVYGTGWFRQAPGKEREFVAGISGTTGSTLYADSVKGRFTISRDNAKNTVYLQMNSLKSEDTALYYCAAGGRVYITTSSWAYWGQGTQVTVSS
notes: Llama single domain antibody; also called 57(#11); VHCDR3 57(#11); not shown: tags: c-myc tag in periplasmic extract (ELISA, FACS); FLAG and His tags in purified VHH (SPR, infection assays)
B9: VHH 018 (3E01) (VHH)
VHH: QVQLQESGGGLVQVGGSLRLSCVASGRAPSRYVMGWFRQAPGQEREFVAGIAWSGRAPYADSVKGRSTISRDNAKNTVYLQMNSLKPEDTGVYYCAGGEGAIRWTTLDAYDYWGQGTQVTVSS
notes: Llama single domain antibody; also called 49(#18); VHCDR3 49(#18); not shown: tags: c-myc tag in periplasmic extract (ELISA, FACS); FLAG and His tags in purified VHH (SPR, infection assays)
B10: VHH 019 (3E11) (VHH)
VHH: B9 VHH with G16S, A24T, A28T, G50A, A52S, S67F, R103K
notes: Llama single domain antibody; also called 47(#19); VHCDR3 47(#19); not shown: tags: c-myc tag in periplasmic extract (ELISA, FACS); FLAG and His tags in purified VHH (SPR, infection assays)
B11: VHH 020 (3H11) (VHH)
VHH: B9 VHH with A28T, S67F, T68V, N73S, P87S, R103L, L107P, D108G, D111N
notes: Llama single domain antibody; also called 48(#20); VHCDR3 48(#20); not shown: tags: c-myc tag in periplasmic extract (ELISA, FACS); FLAG and His tags in purified VHH (SPR, infection assays)

Molecular target: T1, porcine CD163 with deletion of SRCR …
Assay: flow cytometry, PAM CD163-d5
Method: (§1) Periplasmic Extract (P.E) from the selected clones were incubated with anti-c-myc antibody (Roche; Cat. nr. 11667203001), specific to the c-myc tag present in the soluble VHH, for 30 minutes with agitation at room temperature (RT). The mix (P.E + anti-c-myc antibody) was added to the pPAM or pPAMΔ5 domain (cells with deletion of SRCR domain 5) and incubated for 60 min at 4° C. with gentle shaking.
(§2) Cells were washed 3x with 150 µl/well of FACS Buffer and incubated with 50 µl/well of the secondary antibody GAM-APC for 30 min at 4° C. and protected from the light, with shaking.

Binder	% Binding [%]	MFI [MFI]
B1	2.13	1580
B2	1.53	1260
B3	1.74	1260
B4	2.7	1460
B5	1.66	1360
B6	1.6	1130
B7	2.15	1430
B8	1.91	1610
B9	1.96	1400
B10	1.83	1530
B11	1.98	1330

Molecular target: T2, native membrane bound porcine CD163 on …
Assay: flow cytometry, PAM CD163-WT, RT

Binder	% Binding [%]	MFI [MFI]
B1	91.5	17700
B2	0.56	843
B3	1.02	900
B4	0.87	963
B5	1.59	927
B6	20.4	1660
B7	0.69	722
B8	3.32	983
B9	1.74	903
B10	59.5	3940
B11	81.5	9120

Molecular target: T3, pCD163-SRCR4-7-huFc (porcine, UniProt Q2VL90 372-818, limits assumed)
T3 construct: also called pCD163:SRCR4-7-Fc; pCD163-SRCR4-7-Fc; not shown: human Fc (huFc)
Assay: ELISA, periplasmic extract on coated antigen

Binder	O.D. 450 [O.D. 450]
B1	3.14
B2	4.1
B3	2.39
B4	2.65
B5	4.15
B6	4.37
B7	0.416
B8	0.288
B9	0.938
B10	2.43
B11	3.36

Molecular target: T2, native membrane bound porcine CD163 on …
Assay: flow cytometry, PAM CD163-WT, 4C
Method: as §1, §2

Binder	% Binding [%]	MFI [MFI]
B1	97.9	26500
B2	8.75	1390
B3	31.8	1980
B4	38.8	2370
B5	61	3210
B6	81.5	6220
B7	0.97	742
B8	74.1	4270
B9	80.1	5210
B10	93.8	12500
B11	95.5	14000
